Measurements from US11286278B2, “DPEP-1 binding agents and methods of use” (Arch Biopartners, Inc., priority 2018, dated 2022).
Ends that are not written are not given here. * marks the point of attachment. Biotin = O=C1N[C@H]2[C@H](CS[C@H]2CCCCC(=O)*)N1

Key:
[1] = target: T1, human membrane dipeptidase (DPEP-1) (Homo sapiens, UniProt P16444); assay: Membrane dipeptidase enzyme activity assay (Gly-D-Phe, fluorometric); type: biochemical; settings: lysates of transfected Cos1 cells, substrate Gly-D-Phe
T1 construct: expressed in transfected cells; host or cells: Cos-1
T1 sequence (P16444 17-385): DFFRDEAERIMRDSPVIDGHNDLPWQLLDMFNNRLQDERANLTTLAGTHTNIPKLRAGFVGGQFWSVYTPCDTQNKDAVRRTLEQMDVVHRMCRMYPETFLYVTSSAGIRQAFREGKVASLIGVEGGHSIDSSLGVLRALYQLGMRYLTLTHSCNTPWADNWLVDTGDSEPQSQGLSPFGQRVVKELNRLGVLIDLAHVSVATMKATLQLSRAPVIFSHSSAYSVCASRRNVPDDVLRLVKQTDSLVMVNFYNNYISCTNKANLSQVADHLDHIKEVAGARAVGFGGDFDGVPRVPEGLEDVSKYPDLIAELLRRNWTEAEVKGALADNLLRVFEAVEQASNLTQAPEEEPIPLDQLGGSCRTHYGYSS
Method: 24 hours after transfection, DPEP-1 expressing cells weer reseeded on 24 well collagen coated (neutralized) plates and allowed to grow for 24 hours at 37° C. […] Cells were blocked with FBS/NBSA/Tween in PBS for 30 minutes on ice. […] After incubation, cells were washed with PBS and stained with DAPI for 4 minutes on ice. Cells were again washed with PBS, fixed using 4% paraformaldehyde and immunofluoresence microscopy was performed to assess binding. Proteins from human DPEP-1 transfected cells were isolated after 48 hours using octyl-glucoside/RIPA in the absence of protease inhibitors. […] Proteins from transfected cells were isolated after 48 hours using octyl-glucoside/RIPA lysis buffer and western blot analysis was performed to assess DPEP-1 expression using DPEP-1 antibody (Sigma).
The fluorescence signal generated from the conversion of D-Phe to […] in the presence of D-aminoacidoxidase and peroxidase was measured using a fluorescence plate reader.
Proteins from DPEP-1 transfected cells were isolated after 48 hours using octyl-glucoside/RIPA lysis buffer and western blot analysis was performed to assess DPEP-1 expression using a DPEP-1 specific antibody (Proteintech) (FIG. 24B).

DPEP1 = target: T2, DPEP1 (Homo sapiens, UniProt P16444); assay: Alanine-substituted peptide binding to DPEP1 transfected HEK 293 cells, immunofluorescence; set-up: expressed in transfected cells; host or cells: HEK 293; settings: test peptide at 5 uM, 1 hr at room temperature
T2 sequence (P16444 17-385): T1 sequence (P16444 17-385)
Method: […] were transfected with DPEP1 or DPEP2, two days prior to assay and were plated onto collagen-coated coverslips one day prior. Then fixed 10 min with 3.7% formaldehyde in PBS, washed 3 times in PBS, incubated with Alanine-substituted test peptide at 5 uM each, 1 hr at room temperature, washed twice with PBS gently, incubated with 1/50 Alexa 568-straptavadin in PBS, 1 hr at room temperature, washed twice with PBS gently and added DAPI Mounted with DAKO Fluorescent mounting media and evaluated for binding under fluorescence microscope.

[2] = Circular dichroism spectroscopy of LSALT peptide and analogs; type: physicochemical; set-up: Inducible Helical Structure (50% TFE-benign): unit not given here; settings: for Inducible Helical Structure (50% TFE-benign) / [θ] (222 nm) 50% TFE / % Inducible Helical Structure (Inducible/50% TFE) / [θ] (222 nm) Benign (No TFE): 222 nm; for % Inducible Helical Structure (Inducible/50% TFE): 50% TFE is considered 100% folded; for [θ] (222 nm) Benign (No TFE): benign buffer (100 mM KCl, 50 mM Na2HPO4/NaH2PO4, pH 7.0)
Method: The physical and chemical properties of protein therapeutics are critical factors that influence the ease of manufacturing, development and clinical use. The LSALT peptide was evaluated in terms of its solubility, aggregation state and stability using a variety of biophysical methods.
In circular dichroism spectroscopy the ellipticity value at 222 nm is a measure of a-helical content. 50% trifluoroethanol is a hydrophobic solvent and induces α-helical structure if the structure can be induced. All of the peptides tested can be induced to adopt α-helical structure. The peptides are random coils in benign conditions (non-denaturing). The buffer conditions were aqueous phosphate, pH 7.0.

Compound | inhibition of human DPEP1 enzymatic activity [1] | inhibition of human DPEP1 enzymatic activity ([1]; listed as cilastatin) | binding to DPEP-1 by immunofluorescence (alanine mutants) (DPEP1) | inducible α-helical structure (in words) ([2]; 50% trifluoroethanol) | Inducible Helical Structure (50% TFE-benign) [2] | [θ] (222 nm) 50% TFE [2] | % Inducible Helical Structure (Inducible/50% TFE) [2] [%] | [θ] (222 nm) Benign (No TFE) [2] | inhibition of human DPEP1 enzymatic activity ([1]; listed as penicillamine)
CC1(C)C[C@@H]1C(=O)N/C(=C\CCCCSC[C@H](N)C(=O)O)C(=O)O [Cilastatin] | inhibited the activity | can be inhibited |  |  |  |  |  |  | 
LSALTPSPSWLAYKAL [Pos 12] |  |  | decreased and increased binding to DPEP-1 |  |  |  |  |  | 
Bio-LAALTPSPSWLKYKAL [Peptide A2] |  |  |  | significantly enhances inducible α-helical structure | 51,374 | −117502 | 43.7 | −66128 | 
Bio-LSALTPSPSWLKYAAL (Biotin-LSALTPSPSWLKYAAL) [Peptide A14] |  |  |  |  | 14,068 | −39862 | 35.3 | −25794 | 
Bio-LSALTPSPSWLKYKGL (Biotin-LSALTPSPSWLKYKGL) [Peptide A15] |  |  |  |  | 23,450 | −92167 | 25.4 | −68717 | 
Bio-ASALTPSPSWLKYKAL (Biotin-ASALTPSPSWLKYKAL) [Peptide A1] |  |  |  |  | 37,752 | −119807 | 31.5 | −82054 | 
CC(C)(S)[C@@H](N)C(=O)O [Penicillamine] | inhibited the activity |  |  |  |  |  |  |  | can be inhibited
Bio-LSALTGSPSWLKYKAL [Peptide A6] |  |  |  |  | 28,435 | −70926 | 40.1 | −42491 | 
Bio-LSALTPSPSWLKYKAA (Biotin-LSALTPSPSWLKYKAA) [Peptide A16] |  |  |  |  | 11,796 | −37070 | 31.8 | −25275 | 
Bio-LSALAPSPSWLKYKAL [Peptide A5] |  |  |  |  | 29,755 | −79198 | 37.6 | −49443 | 
Bio-LSALTPSPSALKYKAL (Biotin-LSALTPSPSALKYKAL) [Peptide A10] |  |  |  |  | 9,583 | −35792 | 26.8 | −26209 | 
LSALTPSPSALKYKAL [Pos 10] |  |  | decreased and increased binding to DPEP-1 |  |  |  |  |  | 
LSALAPSPSWLKYKAL [Pos 5] |  |  | decreased and increased binding to DPEP-1 |  |  |  |  |  | 
Ac-LSALTPSPSWLKYKAL-amide (Ac-LSALTPSPSWLKYKAL-NH2) [Peptide A18] |  |  |  |  | 40,612 | −78951 | 51.4 | −38340 | 
ASALTPSPSWLKYKAL [Pos 1] |  |  | decreased and increased binding to DPEP-1 |  |  |  |  |  | 
Bio-LSAATPSPSWLKYKAL [Peptide A4] |  |  |  |  | 16,397 | −76916 | 21.3 | −60519 | 
Bio-LSGLTPSPSWLKYKAL [Peptide A3] |  |  |  |  | 18,865 | −68580 | 27.5 | −49714 | 
Bio-LSALTPSPAWLKYKAL [Peptide A9] |  |  |  |  | 13,436 | −62889 | 21.4 | −49453 | 
Bio-LSALTPSPSWLKAKAL (Biotin-LSALTPSPSWLKAKAL) [Peptide A13] |  |  |  |  | 31,488 | −80841 | 39.0 | −49352 | 
Bio-LSALTPSPSWLAYKAL (Biotin-LSALTPSPSWLAYKAL) [Peptide A12] |  |  |  |  | 8,451 | −36742 | 23.0 | −28292 | 
Bio-LSALTPSPSWLKYKAL-amide (Biotin-LSALTPSPSWLKYKAL-NH2) [Peptide A19] |  |  |  |  | 77,996 | −153947 | 50.7 | −75952 | 
Bio-LSALTPSPSWAKYKAL (Biotin-LSALTPSPSWAKYKAL) [Peptide A11] |  |  |  |  | 21,682 | −80196 | 27.0 | −58514 | 
Bio-LSALTPAPSWLKYKAL [Peptide A7] |  |  |  |  | 20,988 | −70198 | 29.9 | −49209 | 
Ac-LSALTPSPSWLKYKAL [Peptide A17] |  |  |  |  | 17,615 | −74897 | 23.5 | −57282 | 
Bio-LSALTPSASWLKYKAL [Peptide A8] |  |  |  |  | 9,444 | −42335 | 22.3 | −32890 | 
